According to US20240287202A1 (XYPHOS BIOSCIENCES, published 2024):

Columns and labels:
[1] = molecular target: T1, A1-A2 domain of human MICA*001 with C-terminal 6x-His tag (monomer) (human, UniProt Q29983 24-205); experiment: Octet BLI, Fc-iNKG2D.AF on AHC tips, monomeric ligand (FIG. 3A)
T1 construct: range 24-205; also called MIC-His ligand
T1 sequence: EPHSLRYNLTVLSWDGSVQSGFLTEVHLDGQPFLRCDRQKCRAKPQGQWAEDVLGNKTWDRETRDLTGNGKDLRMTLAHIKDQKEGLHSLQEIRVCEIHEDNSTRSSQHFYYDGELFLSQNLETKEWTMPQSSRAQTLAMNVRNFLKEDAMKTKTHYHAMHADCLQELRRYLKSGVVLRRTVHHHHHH
From the text: (§1) Library design and phage panning performed was as described for iNKG2D. […] Data are representative of two experiments. […] Error bars represent ±SD of technical replicates.

[2] = molecular target: T2, A1-A2 domain of human ULBP3 with C-terminal 6x-His tag (monomer) (human, UniProt Q9BZM4 30-212); experiment: as above
T2 construct: range 30-212; also called MIC-His ligand
T2 sequence: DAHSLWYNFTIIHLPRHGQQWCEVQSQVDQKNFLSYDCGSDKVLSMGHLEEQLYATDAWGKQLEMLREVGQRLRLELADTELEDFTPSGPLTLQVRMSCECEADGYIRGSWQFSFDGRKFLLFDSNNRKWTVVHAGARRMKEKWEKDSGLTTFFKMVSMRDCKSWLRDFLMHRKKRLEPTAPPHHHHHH
From the text: as §1

[3] = molecular target: T3, A1-A2 domain of human MICB with C-terminal 6x-His tag (monomer) (human, UniProt Q29980 24-205); experiment: Octet BLI, response against concentration (legend: monomeric ligands; axis on the sheet: nM Fc-iNKG2D.AF)
T3 construct: range 24-205; also called MIC-His ligand
T3 sequence: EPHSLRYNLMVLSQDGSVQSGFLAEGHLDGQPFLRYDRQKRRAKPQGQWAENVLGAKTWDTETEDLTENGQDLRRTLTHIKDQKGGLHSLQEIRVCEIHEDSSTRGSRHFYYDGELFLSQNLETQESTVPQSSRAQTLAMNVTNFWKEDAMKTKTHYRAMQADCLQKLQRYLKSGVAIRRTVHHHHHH

binding result [1]: no binding
binding result [2]: no binding
binding result [3]: binds
B1: Fc-iNKG2D.AF (NKG2D ectodomain Y152A/Y199F fused to the C-terminus of human IgG1 Fc) (Fc fusion)
chain: IEGRFLNSLFNQEVQIPLTESYCGPCPKNWICYKNNCYQFFDESKNWYESQASCMSQNASLLKVYSKEDQDLLKLVKSAHWMGLVHIPTNGSWQWEDGSILSPNLLTIIEMQKGDCALYASSFKGFIENCSTPNTYICMQRTV
notes: range 78-216; also called Fc-NKG2D.AF; not shown: human IgG1 Fc
